Source: patent US20140099312A1 (Regeneron, published 2014)

Target: hPCSK9(D374Y)-mmh (human, UniProt Q8NBP7 31-692)
Assay: cell-based or functional assay

- IC50, LDL uptake in HepG2 cells: 1.1 nM
B1: H1M300N (antibody, V domains shown)
VH: EMQLVESGGGLVQPGGSLRLSCAASGFTFSSHWMKWVRQAPGKGLEWVANINQDGSEKYYVDSVKGRFTISRDNAKNSLFLQMNSLRAEDTAVYYCARDIVLMVYDMDYYYYGMDVWGQGTTVTVSS
VL: not shown
